Consider three molecules from article PMC3208551.

In general, Kd refers to the concentration at which binding is half-saturated. In general, koff refers to a measure of how fast the partners let go of each other. In general, kon refers to the rate constant with which the complex forms.

One test concerns the target ActRII-ECD (mouse). Put plainly: SPR; Biacore 2000; receptor ECDs immobilised on a CM5 chip by primary amine coupling, ligands flowed over; at least five concentrations plus zero; global 1:1 Langmuir binding with mass transfer, KD calculated as koff/kon.

Chain of ActRII-ECD (mouse) (P27038 whole entry, the tested form may be a part): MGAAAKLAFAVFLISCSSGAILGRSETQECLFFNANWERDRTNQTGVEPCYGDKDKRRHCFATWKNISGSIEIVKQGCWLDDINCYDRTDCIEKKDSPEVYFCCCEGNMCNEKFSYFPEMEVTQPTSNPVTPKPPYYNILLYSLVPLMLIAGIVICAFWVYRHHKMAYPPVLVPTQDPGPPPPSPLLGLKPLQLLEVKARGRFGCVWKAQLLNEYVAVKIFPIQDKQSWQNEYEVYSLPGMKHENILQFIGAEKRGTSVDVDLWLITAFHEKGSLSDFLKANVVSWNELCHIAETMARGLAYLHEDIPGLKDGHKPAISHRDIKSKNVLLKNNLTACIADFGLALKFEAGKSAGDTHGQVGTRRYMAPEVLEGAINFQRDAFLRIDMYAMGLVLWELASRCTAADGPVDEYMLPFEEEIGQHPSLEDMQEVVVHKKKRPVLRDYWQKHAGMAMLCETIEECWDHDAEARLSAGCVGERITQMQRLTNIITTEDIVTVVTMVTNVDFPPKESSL

“BMP-2 (BBBBBB) (from UniProt P12643 283-396) (ligand)”: in the test with ActRII-ECD (mouse), the dissociation constant (Kd) is 36.8 nM, the off-rate constant (koff) was 0.0405 s⁻¹ and the kon was 1.1e+06 M⁻¹ s⁻¹.

B1: Noggin (natural protein)
chain: QHYLHIRPAPSDNLPLVDLIEHPDPIFDPKEKDLNETLLRSLLGGHYDPGFMATSPPEDRPGGGGGAAGGAEDLAELDQLLRQRPSGAMPSEIKGLEFSEGLAQGKKQRLSKKLRRKLQMWLWSQTFCPVLYAWNDLGSRFWPRYVKVGSCFSKRSCSVPEGMVCKPSKSVHLTVLRWRCQRRGGQRCGWIPIQYPIISECKCSC
B1: the Smad1 luciferase reporter in C2C12 cells, 30 ng/ml ligand with 30, 100 and 300 ng/ml Noggin (% of signaling levels) with AB212 (BBBBBA) (human) is 75.

B2: Activin-βA (AAAAAA) (ligand)
chain: GLECDGKVNICCKKQFFVSFKDIGWNDWIIAPSGYHANYCEGECPSHIAGTSGSSLSFHSTVINHYRMRGHSPFANLKSCCVPTKLRPMSMLYYDDGQNIIKKDIQNMIVEECGCS
Turning to B2, in the test with ActRII-ECD (mouse), the Kd is 0.203 nM, the koff is 0.000716 s⁻¹ and the kon is 3.52e+06 M⁻¹ s⁻¹.
